Measured values: paper PMC8376927 (2021)
Non-standard residues stand in square brackets, D forms with d. No end group written: not given here. *: point of attachment. 5FAM = O=C1OC2(c3ccc(O)cc3Oc3cc(O)ccc32)c2ccc(C(=O)*)cc21; pS = N[C@@H](COP(=O)(O)O)C(=O)O

Target: T1, Human 14-3-3γ WT (human, UniProt P61981 1-247)
T1 chain: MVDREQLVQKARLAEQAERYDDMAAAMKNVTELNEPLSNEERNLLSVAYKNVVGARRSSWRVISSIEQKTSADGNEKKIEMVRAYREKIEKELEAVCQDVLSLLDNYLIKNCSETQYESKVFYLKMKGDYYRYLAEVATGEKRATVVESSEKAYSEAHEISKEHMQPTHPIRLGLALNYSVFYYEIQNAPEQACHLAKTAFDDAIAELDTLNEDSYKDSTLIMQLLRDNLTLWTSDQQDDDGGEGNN
Test: FP

- Kd: 48 µM
Binder: 5FAM-RRRWKL[pS]FSIV [FAM-aidDAPK-pS318 peptide (FAM-RRRWKLpSFSIV)]
